Measurements: patent US20080004209

Columns and labels:
[1] = tested on: alkylated and reduced resistin
[2] = tested on: native resistin
Sequence of native resistin (Q9HD89 19-108): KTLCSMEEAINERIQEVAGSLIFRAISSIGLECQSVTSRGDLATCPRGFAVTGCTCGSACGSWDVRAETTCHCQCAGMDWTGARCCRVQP

Sequence of trypsin (P00761 9-231): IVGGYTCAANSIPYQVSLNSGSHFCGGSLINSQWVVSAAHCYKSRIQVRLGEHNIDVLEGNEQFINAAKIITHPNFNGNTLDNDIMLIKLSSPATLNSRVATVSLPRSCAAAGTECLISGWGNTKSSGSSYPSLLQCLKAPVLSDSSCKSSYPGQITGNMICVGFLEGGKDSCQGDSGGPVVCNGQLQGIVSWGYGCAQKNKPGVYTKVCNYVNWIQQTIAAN
Sequence of alkylated and reduced resistin (Q9HD89 19-108): as the sequence (Q9HD89 19-108) above

For HIV-1 protease, the “cleavage of resistin in vitro (24 hr digestion, SDS-PAGE)” value (from here on “cleavage of resistin in vitro”) [1] was “incubation with HIV-1 protease, cathepsin D and cathepsin E resulted in the appearance of a ca. 7 kDa resistin cleavage product”.

cathepsin D was tested, and the “cleavage of resistin in vitro” value [1] was “incubation with HIV-1 protease, cathepsin D and cathepsin E resulted in the appearance of a ca. 7 kDa resistin cleavage product”.

In the case of cathepsin E, the “cleavage of resistin in vitro” value [1] is reported as “incubation with HIV-1 protease, cathepsin D and cathepsin E resulted in the appearance of a ca. 7 kDa resistin cleavage product”.

trypsin was tested, and the “proteolytic cleavage (preliminary protease digestion experiments, data not shown)” value [2] was “native resistin was refractory to proteolytic cleavage by trypsin, suggestive of a highly folded state (data not shown)” and the “cleavage of resistin in vitro” value [1] was “resistin was completely degraded by the non-specific protease, trypsin”.
